Measurements from article PMC3538539, “Self-Interaction of Human Pex11pβ during Peroxisomal Growth and Division” (PLoS ONE, 2013).

Experiments:
[1] = biological target: the molecule itself; test: cross-linking; COS-7 cells fixed with 4% para-formaldehyde 24 h after transfection, postfixation extraction with 0.2% Triton X-100 (or digitonin); extracts, pellets and unfixed lysates on SDS-PAGE, anti-Myc immunoblot
[2] = biological target: the molecule itself; test: cross-linking; data not shown: para-formaldehyde fixation, postfixation Triton X-100 extraction, immunoblot

B1: HsPex11pβ-Myc (natural protein, human, UniProt O96011 1-259, looked up)
chain: MDAWVRFSAQSQARERLCRAAQYACSLLGHALQRHGASPELQKQIRQLESHLSLGRKLLRLGNSADALESAKRAVHLSDVVLRFCITVSHLNRALYFACDNVLWAGKSGLAPRVDQEKWAQRSFRYYLFSLIMNLSRDAYEIRLLMEQESSACSRRLKGSGGGVPGGSETGGLGGPGTPGGGLPQLALKLRLQVLLLARVLRGHPPLLLDVVRNACDLFIPLDKLGLWRCGPGIVGLCGLVSSILSILTLIYPWLRLKP
notes: human Pex11pβ (HsPex11pβ), peroxisomal membrane protein 11B; also called Pex11pβ-Myc (WT); wild type Pex11pβ-Myc; source: COS-7, transfected; cross-linked in cells, then in detergent extract or lysate; not shown: Myc, C-terminal, kept
- stoichiometry N [1]: 2

B2: Pex11pβ-Myc^C18S-C25S-C85S (natural protein, human, UniProt O96011 1-259, looked up)
chain: MDAWVRFSAQSQARERLSRAAQYASSLLGHALQRHGASPELQKQIRQLESHLSLGRKLLRLGNSADALESAKRAVHLSDVVLRFSITVSHLNRALYFACDNVLWAGKSGLAPRVDQEKWAQRSFRYYLFSLIMNLSRDAYEIRLLMEQESSACSRRLKGSGGGVPGGSETGGLGGPGTPGGGLPQLALKLRLQVLLLARVLRGHPPLLLDVVRNACDLFIPLDKLGLWRCGPGIVGLCGLVSSILSILTLIYPWLRLKP
notes: human Pex11pβ with the three N-terminal cysteines replaced by serine; also called triple mutant; source: COS-7, transfected; cross-linked in cells, then in Triton X-100 extract; not shown: Myc, C-terminal, kept
- stoichiometry N [2]: 2
